Consider one molecule from patent US20190233507A1 (CORNELL UNIVERSITY, published 2019).

For the test, the target named is β-galactosidase (UniProt P00722 2-1024 = β-galactosidase, limits assumed). Kind of test: ELISA, plate coated with 1 µg β-gal per well, anti-FLAG-HRP detection. The text has this:
FIGS. 1A-D illustrate ubiquibody expression and binding. FIG. 1A is a schematic depiction of pET28a constructs used to express ubiquibodies (“uAb”) in E. coli, which includes single chain Fv antibody fragment (“scFv”), GSGSG linker (“˜”), human C-terminus of Hsc70-interacting protein (“CHIP”) without the N-terminal TPR domain (“[…]”), a FLAG-tag (“F”) and a 6×His-tag (“H6”). FIG. 1B is a western blot of the soluble fractions isolated from BL21(DE3) E. coli cells expressing wild-type human CHIP, inactivated CHIPH260Q, CHIPΔTPR, scFv13R4, scFv13R4-uAb, scFv13-uAb and scFvD10-uAb. An equivalent amount of total protein was loaded in each lane and expression was assayed using anti-FLAG-HRP. FIG. 1C is a graph showing ELISA results where a plate was coated with 1 μg β-gal per well and incubated with 160 ng of purified protein per well. Samples were performed in triplicate and error bars represent the standard deviation of the mean. […]
Briefly, ELISAs were performed using a 96-well plate coated with antigen (β-gal, gpD or Hsp70) at a concentration of 10 μg/mL (1 μg of antigen per well) and incubated overnight at 4° C. […] The amount of bound anti-flag-HRP was determined by using SigmaFAST™ o-phenylenediamine dihydrochloride (OPD) tablets for detection of peroxidase activity at 492 nm.
(In general: In an ELISA, binding on a coated surface is turned into a signal by an enzyme label.)

Sequence of β-galactosidase (P00722 2-1024 limits assumed): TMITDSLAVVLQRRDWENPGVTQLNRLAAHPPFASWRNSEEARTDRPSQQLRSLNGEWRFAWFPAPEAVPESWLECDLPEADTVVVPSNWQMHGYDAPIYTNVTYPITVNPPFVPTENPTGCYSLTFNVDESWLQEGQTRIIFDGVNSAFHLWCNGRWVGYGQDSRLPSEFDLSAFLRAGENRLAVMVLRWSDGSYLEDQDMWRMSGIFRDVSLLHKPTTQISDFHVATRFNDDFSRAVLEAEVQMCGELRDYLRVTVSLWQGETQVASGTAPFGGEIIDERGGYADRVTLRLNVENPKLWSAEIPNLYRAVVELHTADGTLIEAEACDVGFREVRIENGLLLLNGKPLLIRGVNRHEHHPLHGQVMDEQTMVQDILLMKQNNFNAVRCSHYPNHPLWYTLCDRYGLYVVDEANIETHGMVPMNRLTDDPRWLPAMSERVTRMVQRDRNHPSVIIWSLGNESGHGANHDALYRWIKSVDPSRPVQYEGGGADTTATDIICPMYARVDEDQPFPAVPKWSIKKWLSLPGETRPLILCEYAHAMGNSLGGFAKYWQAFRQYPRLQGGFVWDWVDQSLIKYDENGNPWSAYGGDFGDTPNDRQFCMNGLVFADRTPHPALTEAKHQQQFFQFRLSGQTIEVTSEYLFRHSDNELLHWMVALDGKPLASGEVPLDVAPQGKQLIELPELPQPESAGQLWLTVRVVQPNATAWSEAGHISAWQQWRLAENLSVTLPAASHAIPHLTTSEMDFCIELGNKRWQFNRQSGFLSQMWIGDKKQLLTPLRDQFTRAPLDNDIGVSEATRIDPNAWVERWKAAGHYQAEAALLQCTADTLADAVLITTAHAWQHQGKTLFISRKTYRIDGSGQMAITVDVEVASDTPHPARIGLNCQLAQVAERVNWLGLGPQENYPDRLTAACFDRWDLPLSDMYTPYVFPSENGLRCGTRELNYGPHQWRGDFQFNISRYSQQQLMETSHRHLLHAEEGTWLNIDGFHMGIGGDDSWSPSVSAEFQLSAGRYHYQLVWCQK

B1: CHIPΔTPR (Construct 3: hCHIPdTPR-FLAGtag-His6tag) (enzyme)
chain: MGRLNFGDDIPSALRIAKKKRWNSIEERRIHQESELHSYLSRLIAAERERELEECQRNHEGDEDDSHVRAQQACIEAKHDKYMADMDELFSQVDEKRKKRDIPDYLCGKISFELMREPCITPSGITYDRKDIEEHLQRVGHFDPVTRSPLTQEQLIPNLAMKEVIDAFISENGWVEDYVDGADYKDDDDKGHHHHHH
notes: Control protein, purified from E. coli
Regarding B1, the binding result was “no binding (tested: 160 ng of purified protein per well)”.
